For test [1], the target named is MOSP expressed in E. coli with a PelB signal sequence (Treponema denticola). Briefly: native gel or EMSA; BN-PAGE and immunoblot of the 2% DDM extract of the outer membrane fraction of E. coli expressing PelB-MOSP. (A gel shift assay detects complexes by their altered migration in electrophoresis.)
In test [2] the target is major outer sheath protein, native periplasmic conformer (Treponema denticola ATCC 35405 (endogenous)). The test can be described thus: SDS-PAGE without boiling, immunoblot; 2% DDM-solubilized pellet of sonicated T. denticola, run with and without boiling, anti-MOSP^Fl; TX-114 phase partitioning of the same material.
The target is the same in test [3]. Briefly: SDS-PAGE without boiling, immunoblot; NP-40 supernatant (OM conformer) and TX-114 aqueous phase (periplasmic conformer) of T. denticola in Laemmli buffer, with and without boiling; antisera to MOSP^Fl, PrtP, PrcA1, PrcA2, PrcB. On the technique in general: Immunoblotting shows a protein as a band on a membrane.
Test [4] has as its target major outer sheath protein, native outer membrane conformer (Treponema denticola ATCC 35405 (endogenous)). Briefly: SDS-PAGE without boiling, immunoblot; 2% DDM-solubilized pellet of sonicated T. denticola, run with and without boiling, anti-MOSP^Fl; TX-114 phase partitioning of the same material.
For test [5] the target is unchanged. Briefly: SDS-PAGE without boiling, immunoblot; NP-40 supernatant (OM conformer) and TX-114 aqueous phase (periplasmic conformer) of T. denticola in Laemmli buffer, with and without boiling; antisera to MOSP^Fl, PrtP, PrcA1, PrcA2, PrcB.
Test [6] deals with MOSP^C, C-terminal domain of the major outer sheath protein (recombinant, refolded) (Treponema denticola). The test can be described thus: SEC + other: negative-stain TEM of nanodiscs; MOSP^C incorporated into small D7 DMPC nanodiscs, S200 column, Tris-NaCl buffer pH 7.5; peaks examined by SDS-PAGE and TEM.
Test [7] shares this target. Briefly: negative-stain TEM of nanodiscs; MOSP^C refolded in DDM and incorporated into large MSP1E3D1 (E3D1) DMPC nanodiscs; SEC peak fractions, uranyl formate stain, averaged images.

In article PMC5643300 one finds stoichiometry N data, which are given here for 4 substances.

For orientation: stoichiometry N means the number of molecules, sites or subunits per partner or assembly. “MOSP expressed in E. coli with a PelB signal sequence (natural protein)” had a stoichiometry N in test [1] of 3.
On to “major outer sheath protein, native periplasmic conformer (natural protein)”, for which the stoichiometry N in test [2] and in test [3] was 3 throughout.
As for “major outer sheath protein, native outer membrane conformer (natural protein)”, the stoichiometry N in test [4] and in test [5] was 3 in each case.
Turning to “MOSP^C, C-terminal domain of the major outer sheath protein (recombinant, refolded) (domain or fragment)”, the stoichiometry N in test [6] and in test [7] was 3 throughout.
